Test results: patent US20240400701A1 (LANOVA MEDICINES DEVELOPMENT, published 2024)

How the values were obtained:
[1] = target: T1, human AMHRII (anti-Mullerian hormone receptor type 2) (human, UniProt Q16671 18-573); experiment: cell-based or functional assay
T1 sequence (looked up): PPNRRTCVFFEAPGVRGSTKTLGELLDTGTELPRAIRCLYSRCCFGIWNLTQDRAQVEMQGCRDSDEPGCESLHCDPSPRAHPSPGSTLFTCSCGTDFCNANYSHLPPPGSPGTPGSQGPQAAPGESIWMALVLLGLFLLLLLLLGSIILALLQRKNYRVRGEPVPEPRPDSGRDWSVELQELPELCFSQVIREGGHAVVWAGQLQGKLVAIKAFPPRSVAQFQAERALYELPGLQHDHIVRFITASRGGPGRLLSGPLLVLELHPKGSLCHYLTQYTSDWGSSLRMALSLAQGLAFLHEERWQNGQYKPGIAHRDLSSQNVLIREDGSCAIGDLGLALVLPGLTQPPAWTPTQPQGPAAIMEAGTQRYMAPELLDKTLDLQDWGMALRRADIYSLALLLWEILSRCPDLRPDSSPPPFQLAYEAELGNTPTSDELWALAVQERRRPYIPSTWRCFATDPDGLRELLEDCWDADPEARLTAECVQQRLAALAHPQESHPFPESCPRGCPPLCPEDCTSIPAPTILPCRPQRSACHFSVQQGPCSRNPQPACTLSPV

[2] = target: T1, human AMHRII (anti-Mullerian hormone …); experiment: FACS on Rko cells over-expressing human AMHR2
Experimental: Similarly, the binding of these antibodies was tested with Rko cells that over-expressed AMHR2. 100 μl of 1×10⁶ cells/ml of cells were incubated with the antibodies in 3-fold serial dilutions starting from 300 nM to 0.002 nM for 30 minutes on ice. After being washed with 200 μl of FACS buffer twice, cells were incubated with secondary antibody for 30 minutes on ice. Cells were washed with 200 μl of FACS buffer twice and analyzed by FACS.

[3] = target: T1, human AMHRII (anti-Mullerian hormone …); experiment: FACS on CHO-K1 cells over-expressing human AMHR2
Experimental: CHO-K1 cells that over-expressed AMHR2 were harvested from flasks. 100 μl of 1×10⁶ cells/ml of cells were incubated with primary chimeric antibodies (or with positive reference antibody Ref.Ab) in 3-fold serial dilutions starting from 300 nM to 0.002 nM for 30 minutes on ice. After being washed with 200 μl of FACS buffer twice, cells were incubated with secondary antibody for 30 minutes on ice. Cells were washed with 200 μl of FACS buffer twice and analyzed by FACS.

[4] = target: T1, human AMHRII (anti-Mullerian hormone …); experiment: FACS on CHO-K1 cells over-expressing human AMHR2; remark: listed apart in the source
Experimental: (§1) CHO-K1 cells over-expressed AMHR2 were harvested from flasks. 100 μl of 1×10⁶ cells/ml of cells were incubated with the humanized antibodies in 3-fold serial dilutions starting from 300 nM to 0.001 nM for 30 minutes on ice. After being washed with 200 μl of FACS buffer twice, cells were incubated with secondary antibody for 30 minutes on ice. Cells were washed with 200 μl of FACS buffer twice and analyzed by FACS.

[5] = target: T1, human AMHRII (anti-Mullerian hormone …); experiment: FACS on Rko cells over-expressing human AMHR2; remark: listed apart in the source
Experimental: Rko cells over-expressing AMHR2 were harvested from flasks. 100 μl of 1×10⁶ cells/ml of cells were incubated with primary PTM antibodies in 3-fold serial dilutions starting from 300 nM to 0.001 nM for 30 minutes on ice. After being washed with 200 μl of FACS buffer twice, cells were incubated with secondary antibody for 30 minutes on ice. Cells were washed with 200 μl of FACS buffer twice and analyzed by FACS.

[6] = target: T1, human AMHRII (anti-Mullerian hormone …); experiment: FACS on CHO-K1 cells over-expressing human AMHR2; remark: listed apart in the source
Experimental: as §1

[7] = target: T1, human AMHRII (anti-Mullerian hormone …); experiment: FACS on CHO-K1 cells over-expressing human AMHR2; remark: listed apart in the source
Experimental: as §1

[8] = target: T1, human AMHRII (anti-Mullerian hormone …); experiment: FACS on CHO-K1 cells over-expressing human AMHR2; remark: listed apart in the source
Experimental: as §1

B1: xi103C5G10F9 hIgG1 (antibody, V domains shown)
VH: DVQLQESGPGLVKPSQSLSLTCTVTGYSITSDYAWNWIRQFPGNKLEWMGYISYSGSTSYNPSLKSRISITRDTSKNQFFLQLNSVTTEDTATYYCARSRYSWFDYWGQGTLVTVSA
VL: DIVLTQSPTSLAVSLGQRATLSCSASESVDTYGNSFMHWYQQKPGQSPKLLIYRASSLESGIPARFSGSGSRTDFTLTINPVEAADVATYYCQQSNEDPYTFGGGTKLEIK
notes: Murine variable domains in human chimeric format, human IgG1; also called 103C5G10F9 (chimeric)
With B1 the “ADCC reporter bioassay, EC50” value [1] was 0.39 nM, the “ADCC reporter bioassay, Top (MFI)” value [1] was 13900 MFI and the EC50 [2] was 0.43 nM. For the same binder, the “Top (MFI)” value [2] was 8580 MFI, the EC50 [3] was 1.08 nM and the “Top (MFI)” value [3] was 124000 MFI.

B2: xi94C4C3 hIgG1 (antibody, V domains shown)
VH: DVQLQESGPGLVKPSQSLSLTCTVTGYSITSDYAWNWIRQFPGNKLEWMGYISYSGSISYNPSLKSRISITRDTSKNQFFLQLNSVTTEDTATYYCARSRYSWFDYWGQGTLVTVSA
VL: DIVLTQSPTSLAVSLGQRATLSCSASESVDTYGNSFMHWYQQKPGQPPKLLIYRASSLESGIPVRFSGSGSRTDFTLTINPVEAADVATYYCQQSNEDPYTFGGGTKLEIK
notes: Murine variable domains in human chimeric format, human IgG1; also called xi94C4C3 hlgG1; 94C4C3 (chimeric)
B2 was tested, and the “ADCC reporter bioassay, EC50” value [1] was 0.35 nM, the “ADCC reporter bioassay, Top (MFI)” value [1] was 13100 MFI and the EC50 [4] was 1.21 nM. For the same binder, the “Top (MFI)” value [4] was 54900 MFI, the EC50 [5] was 0.627 nM and the “Top (MFI)” value [5] was 19000 MFI. For the same binder, the EC50 [2] was 0.56 nM, the “Top (MFI)” value [2] was 8380 MFI and the EC50 [6] was 1.21 nM. The “Top (MFI)” value [6] was 54900 MFI, the EC50 [3] was 1.17 nM and the “Top (MFI)” value [3] was 124000 MFI.

B3: xi114A2B5 hIgG1 (antibody, V domains shown)
VH: DVQLQESGPGLVKPSQSLSLTCTVTGYSITSDYAWNWIRQFPGNKLEWMGYISYSGSTSYNPSLKSRISITRDTSKNQFFLQLNSVTTEDTATYYCARSRYSWFDYWGQGTLVTVSA
VL: DIVLTQSPASLAVSLGQRATLSCRASESVDTYGNSFMHWYQQKPGQSPKLLIYRASSLESGIPARFSGSGSRTDFTLTINPVEAADVATYYCQQSNEDPYTFGGGTKLEIK
notes: Murine variable domains in human chimeric format, human IgG1; also called 114A2B5 (chimeric)
With B3 the “ADCC reporter bioassay, EC50” value [1] was 0.34 nM, the “ADCC reporter bioassay, Top (MFI)” value [1] was 14100 MFI and the EC50 [2] was 0.52 nM. The “Top (MFI)” value [2] was 8330 MFI, the EC50 [3] was 1.04 nM and the “Top (MFI)” value [3] was 127000 MFI.

B4: xi108F3D1E9 hIgG1 (antibody, V domains shown)
VH: DVQLQESGPGLVKPSQSLSLTCTVTGYSITSDFAWNWIRQFPGNKLEWMGYINFSGSTSYNPSLKSRISITRDTSKNQFFLQLNSVTTEDTATYYCAGSRYSWFAYWGQGTLVTVSA
VL: DIVLTQSPASLAVSLGQRATISCRASESVDTYGNSFMHWYQQKPGQPPKLLIYRASNLESGIPARFSGSGSRTDFTLTINPVEADDVATYYCQQSNEDPYTFGGGTKLEIK
notes: Murine variable domains in human chimeric format, human IgG1; also called xi108F3D1E9 hlgG1; 108F3D1E9 (chimeric)
For B4, the “ADCC reporter bioassay, EC50” value [1] was 0.19 nM, the “ADCC reporter bioassay, Top (MFI)” value [1] was 13300 MFI and the EC50 [4] was 1.05 nM. The “Top (MFI)” value [4] was 74400 MFI, the EC50 [5] was 0.756 nM and the “Top (MFI)” value [5] was 18700 MFI. For the same binder, the EC50 [2] was 0.47 nM, the “Top (MFI)” value [2] was 8190 MFI and the EC50 [7] was 1.05 nM. For the same binder, the “Top (MFI)” value [7] was 74400 MFI, the EC50 [3] was 1.37 nM and the “Top (MFI)” value [3] was 124000 MFI.

B5: 31D9B3 H3L4 hIgG1 (antibody, V domains shown)
VH: QVQLVQSGAEVKVPGASVKMSCKASGYTFTDYWVSWVRQSPGQGLEWIGEIYPKNGVSNFNEKFKGRVTLTVDKSTSTAYMELRSLRSDDTAVYYCTRQRDYWGQGVLVTVSS
VL: DVVLTQSPLSLPVTLGQPASISCRSSQSLEYGDGYTYLEWYLQRPGQSPQLLIYGVSNRFSGVPDRFIGSGSGTDFTLKISRVEPEDVGVYYCFQATHDPNTFGAGTKLEIK
notes: Humanized, human IgG1; also called 31D9B3 H3L4 hlgG1
In the case of B5, the EC50 [8] is reported as 1.01 nM and the “Top (MFI)” value [8] is reported as 36400 MFI.

B6: 31D9B3 H4L3 hIgG1 (antibody, V domains shown)
VH: QVQLVQSGAEVVKPGASVKMSCKASGYTFTDYWVSWVKQSPGQGLEWIGEIYPKNGVSNFNEKFKGKATLTVDKSTSTAYMELRRLRSDDTAVFYCTRQRDYWGQGVLVTVSS
VL: DVVMTQSPLSLPVTLGQPASISCRSSQSLEYGDGYTYLEWYLQRPGQSPRLLIYGVSNRFSGVPDRFIGSGSGTDFTLKISRVEAEDVGVYYCFQATHDPNTFGAGTKLEIK
notes: Humanized, human IgG1; also called 31D9B3 H4L3 hlgG1
With B6 the EC50 [8] was 0.83 nM and the “Top (MFI)” value [8] was 36000 MFI.

B7: 31D9B3 H4L1 hIgG1 (antibody, V domains shown)
VH: QVQLVQSGAEVVKPGASVKMSCKASGYTFTDYWVSWVKQSPGQGLEWIGEIYPKNGVSNFNEKFKGKATLTVDKSTSTAYMELRRLRSDDTAVFYCTRQRDYWGQGVLVTVSS
VL: DVVMTQSPLSLPVTLGQPASISCRSSQSLEYGDGYTYLEWFQQRPGQSPRRLIYGVSNRFSGVPDRFSGSGSGTDFTLKISRVEAEDVGVYYCFQATHDPNTFGQGTKLEIK
notes: Humanized, human IgG1; also called 31D9B3 H4L1 hlgG1
In the case of B7, the EC50 [8] is reported as 2.18 nM and the “Top (MFI)” value [8] is reported as 16100 MFI.

B8: 31D9B3 H4L2 hIgG1 (antibody, V domains shown)
VH: QVQLVQSGAEVVKPGASVKMSCKASGYTFTDYWVSWVKQSPGQGLEWIGEIYPKNGVSNFNEKFKGKATLTVDKSTSTAYMELRRLRSDDTAVFYCTRQRDYWGQGVLVTVSS
VL: DVVMTQSPLSLPVTLGQPASISCRSSQSLEYGDGYTYLEWYLQRPGQSPRLLIYGVSNRFSGVPDRFSGSGSGTDFTLKISRVEAEDVGVYYCFQATHDPNTFGQGTKLEIK
notes: Humanized, human IgG1; also called 31D9B3 H4L2 hlgG1
For B8, the EC50 [8] was 0.84 nM and the “Top (MFI)” value [8] was 36200 MFI.

B9: 31D9B3 H4L4 hIgG1 (antibody, V domains shown)
VH: QVQLVQSGAEVVKPGASVKMSCKASGYTFTDYWVSWVKQSPGQGLEWIGEIYPKNGVSNFNEKFKGKATLTVDKSTSTAYMELRRLRSDDTAVFYCTRQRDYWGQGVLVTVSS
VL: DVVLTQSPLSLPVTLGQPASISCRSSQSLEYGDGYTYLEWYLQRPGQSPQLLIYGVSNRFSGVPDRFIGSGSGTDFTLKISRVEPEDVGVYYCFQATHDPNTFGAGTKLEIK
notes: Humanized, human IgG1; also called 31D9B3 H4L4 hlgG1
B9 was tested, and the EC50 [8] was 0.75 nM and the “Top (MFI)” value [8] was 37200 MFI.

B10: xi35D4G3 hIgG1 (antibody, V domains shown)
VH: QVRLLQSGAALVKPGASAKMSCKASGYTFTDYWVSWVKQSHGKSLEWIGEIYPDNGITNFNEKFKGKATLTVDKSTRTAYMELSRLTSEDSAIYYCTRQRDYWGQGVMVTVSS
VL: DVVLTQTPGSLSVTLGDQVSISCRSSQSLKYGDGYTYLEWYLQKPGQSPQLLFYGVSNRFSGVPDRFIGSGSGTDFTLKISRVEPEDLGVYYCFQATHDPNTFGTGTKLDLK
notes: Murine variable domains in human chimeric format, human IgG1; also called 35D4G3 (chimeric)
With B10 the “ADCC reporter bioassay, EC50” value [1] was 0.25 nM, the “ADCC reporter bioassay, Top (MFI)” value [1] was 14500 MFI and the EC50 [2] was 0.49 nM. For the same binder, the “Top (MFI)” value [2] was 8290 MFI, the EC50 [3] was 0.11 nM and the “Top (MFI)” value [3] was 114000 MFI.
